Results taken from US20260176621A1, “Metabolically Stabilized Carbohydrate Targeting Ligands For Oligonucleotide Conjugates” (Arrowhead Pharmaceuticals, Inc., priority 2023, published 2026).

Assays:
Type in all cases: in vivo, Cynomolgus monkey
PCSK9 [1] = assay: Serum PCSK9 by ELISA (Example 5); details: for Rel. Exp. PCSK9 (serum, ELISA, normalized to pre-dose): 6.0 mg/kg SQ on Day 1; for inhibition of serum PCSK9: single 6.0 mg/kg SQ on Day 1
Description: (§1) On Day 1, three (n=3) male Cynomolgus monkey test animals for each test group were dosed with APOC3-PCSK9 RNAi agents formulated in saline (at 6.0 mg/kg), via subcutaneous (SQ) injection with syringe and needle in the mid-scapular region, at […] dose volume.
(§2) Serum blood (approximately 5.0 mL) was collected on Day −6, Day 8, Day 15, Day 22, Day 29, Day 36, Day 43, Day 50, […], prior to liver biopsy sample collections or dose administration (when applicable), and from any animals found in moribund condition or sacrificed at an unscheduled interval. The collection site was the femoral vein, with a saphenous vein as an alternative collection site.
Serum PCSK9 was quantified via ELISA (R&D Systems, Cat. #DPC900) in accordance with manufacturer's instructions. The relative PCSK9 levels were normalized to pre-dose Day −6.

PCSK9 [2] = assay: Liver PCSK9 mRNA expression by qPCR of liver biopsies (Example 5); details: for Rel. Exp. PCSK9 (liver mRNA, qPCR, normalized to Day −6): 6.0 mg/kg SQ on Day 1
Description: as §1
(§3) The liver biopsies and serum collected from the test animals were used for analysis for APOC3 and PCSK9 expression and additional biological parameters. Liver biopsies were collected on Day −6, Day 15, Day 36, Day 50, and Day 64 (post-mortem).
(§4) Liver biopsies were collected as a sedated procedure. Animals were fasted overnight (at least 12 hours but less than 18 hours) prior to each liver biopsy collection. For each animal, collected liver biopsy samples were of approximately 100 mg each (80 to 120 mg).
(§5) The collected liver biopsies were analyzed for APOC3 and PCSK9 expression and additional biological parameters. Liver APOC3 and PCSK9 mRNA expression levels were quantified via qPCR, using cARL1 as endogenous control gene, normalized to Day-6 (pre-dose).

APOC3 [3] = assay: Liver APOC3 mRNA expression by qPCR of liver biopsies (Example 5); details: for Rel. Exp. APOC3 (liver mRNA, qPCR, normalized to Day −6): 6.0 mg/kg SQ on Day 1; for inhibition of liver APOC3 transcripts: single 6.0 mg/kg SQ on Day 1
Description: as §1, §3, §4, §5

APOC3 [4] = assay: Serum APOC3 by Roche Cobas assay (Example 5); details: for APOC3 (serum): 6.0 mg/kg SQ on Day 1; for inhibition of serum APOC3 relative to Day −6: single 6.0 mg/kg SQ on Day 1
Description: as §1, §2
Serum APOC3 was quantified via Roche Cobas® assay for APOC3 in accordance with manufacturer's instructions.

Row | Molecule | Rel. Exp. PCSK9 (serum, ELISA, normalized to pre-dose) (PCSK9 [1]; Day 1) | Rel. Exp. PCSK9 (serum, ELISA, normalized to pre-dose) (PCSK9 [1]; Day 8) | Rel. Exp. PCSK9 (serum, ELISA, normalized to pre-dose) (PCSK9 [1]; Day 15) | Rel. Exp. PCSK9 (serum, ELISA, normalized to pre-dose) (PCSK9 [1]; Day 22) | Rel. Exp. PCSK9 (serum, ELISA, normalized to pre-dose) (PCSK9 [1]; Day 29) | Rel. Exp. PCSK9 (serum, ELISA, normalized to pre-dose) (PCSK9 [1]; Day 36) | Rel. Exp. PCSK9 (serum, ELISA, normalized to pre-dose) (PCSK9 [1]; Day 43) | Rel. Exp. PCSK9 (serum, ELISA, normalized to pre-dose) (PCSK9 [1]; Day 50) | Rel. Exp. PCSK9 (serum, ELISA, normalized to pre-dose) (PCSK9 [1]; Day 57) | Rel. Exp. PCSK9 (serum, ELISA, normalized to pre-dose) (PCSK9 [1]; Day 64) | Rel. Exp. PCSK9 (serum, ELISA, normalized to pre-dose) (PCSK9 [1]; Day −6 (pre-dose)) | Rel. Exp. PCSK9 (liver mRNA, qPCR, normalized to Day −6) (PCSK9 [2]; Day 15) | Rel. Exp. PCSK9 (liver mRNA, qPCR, normalized to Day −6) (PCSK9 [2]; Day 36) | Rel. Exp. PCSK9 (liver mRNA, qPCR, normalized to Day −6) (PCSK9 [2]; Day 50) | Rel. Exp. PCSK9 (liver mRNA, qPCR, normalized to Day −6) (PCSK9 [2]; Day 64) | Rel. Exp. PCSK9 (liver mRNA, qPCR, normalized to Day −6) (PCSK9 [2]; Day −6 (pre-dose baseline)) | Rel. Exp. APOC3 (liver mRNA, qPCR, normalized to Day −6) (APOC3 [3]; Day 15) | Rel. Exp. APOC3 (liver mRNA, qPCR, normalized to Day −6) (APOC3 [3]; Day 36) | Rel. Exp. APOC3 (liver mRNA, qPCR, normalized to Day −6) (APOC3 [3]; Day 50) | Rel. Exp. APOC3 (liver mRNA, qPCR, normalized to Day −6) (APOC3 [3]; Day 64) | other results
1 | AC003791: APOC3-PCSK9 dimer RNAi agent conjugate with (NAG52)s ligand, SEQ ID NO 14-16 (nucleic acid, (NAG52)s ligand conjugate; modified_base 1 OTHER; 5'-cyclopropyl phosphonate-2'-O-methyladenosine; modified_base 1^2 OTHER; phosphorothioate linkage; modified_base 2 OTHER; 2'-fluoroadenosine; modified_base 2^3 OTHER; modified_base 3 gm; modified_base 4 um; modified_base 5 um; modified_base 6 OTHER; 2'-O-methyladenosine; modified_base 7 cm; modified_base 8 OTHER; modified_base; 5'-cyclopropyl phosphonate-2'-O-methyluridine; 2'-fluorocytidine; phosphor) chain 1: AAGUUACAAAAGCAAAACG chain 2: UCACUGAGAAUACUGUCCC chain 3: CGUUUUGCUUUUGUAACUUGGGACAGUAUUCUCAGUNA | 1.161 | 0.682 | 0.415 | 0.339 | 0.353 | 0.323 | 0.375 | 0.759 | 0.431 | 0.538 | 0.925 | 0.692 | 0.908 | 1.271 | 0.351 | 1.000 | 0.408 | 0.611 | 0.336 | 0.500 | inhibition of serum PCSK9 (PCSK9 [1]; Day 36 (nadir)): approximately 67%; inhibition of serum PCSK9 (PCSK9 [1]; Day 64): approximately 46%; inhibition of liver PCSK9 transcripts (PCSK9 [2]; Day 64, single 6.0 mg/kg SQ on Day 1): approximately 64%; inhibition of liver APOC3 transcripts (APOC3 [3]; Day 50): approximately 66%; inhibition of liver APOC3 transcripts (APOC3 [3]; Day 64): approximately 50%; Rel. Exp. APOC3 (liver mRNA, qPCR, normalized to Day −6) (APOC3 [3]; Day −6 (pre-dose baseline)): 1.000; APOC3 (serum) (APOC3 [4]; Day 1): 6.48 mg/dL; APOC3 (serum) (APOC3 [4]; Day 8): 4.57 mg/dL; APOC3 (serum) (APOC3 [4]; Day 15): 4.03 mg/dL; APOC3 (serum) (APOC3 [4]; Day 22): 2.92 mg/dL; APOC3 (serum) (APOC3 [4]; Day 29): 3.69 mg/dL; inhibition of serum APOC3 relative to Day −6 (APOC3 [4]; Day 36 (nadir)): approximately 51%; APOC3 (serum) (APOC3 [4]; Day 36): 2.96 mg/dL; APOC3 (serum) (APOC3 [4]; Day 43): 3.18 mg/dL; APOC3 (serum) (APOC3 [4]; Day 50): 3.32 mg/dL; APOC3 (serum) (APOC3 [4]; Day 57): 4.56 mg/dL; APOC3 (serum) (APOC3 [4]; Day 64): 4.65 mg/dL; inhibition of serum APOC3 relative to Day −6 (APOC3 [4]; Day 64): approximately 24%; APOC3 (serum) (APOC3 [4]; Day −6 (pre-dose baseline)): 6.15 mg/dL
2 | AC005898: APOC3-PCSK9 dimer RNAi agent conjugate with (NAG52)s ligand, SEQ ID NO 17-19 (nucleic acid, (NAG52)s ligand conjugate; modified_base 1 OTHER; 5'-cyclopropyl phosphonate-2'-O-methyladenosine; modified_base 1^2 OTHER; phosphorothioate linkage; modified_base 2 OTHER; 2'-fluorocytidine; modified_base 2^3 OTHER; modified_base 3 OTHER; 2'-O-methyladenosine; modified_base 3^4 OTHER; modified_base 4 OTHER; 2'-fluoroadenosine; modified_base 5 OTHER; 5'-cyclopropyl phosphonate-2'-O-methyluridine; phosphor) chain 1: ACAAAAGCAAAACAGGUCC chain 2: UCACUGAGAAUACUGUCCC chain 3: GGACCUGUUUUGCUUUUGUGGGACAGUAUUCUCAGUNA | 1.004 | 0.724 | 0.561 | 0.560 | 0.617 | 0.426 | 0.790 | 0.728 | 0.762 | 0.928 | 1.140 | 0.614 | 0.520 | 0.528 | 0.457 | 1.000 | 0.545 | 0.929 | 0.491 | 0.535 | Rel. Exp. APOC3 (liver mRNA, qPCR, normalized to Day −6) (APOC3 [3]; Day −6 (pre-dose baseline)): 1.000; APOC3 (serum) (APOC3 [4]; Day 1): 6.10 mg/dL; APOC3 (serum) (APOC3 [4]; Day 8): 4.61 mg/dL; APOC3 (serum) (APOC3 [4]; Day 15): 3.59 mg/dL; inhibition of serum APOC3 relative to Day −6 (APOC3 [4]; Day 22 (nadir)): approximately 40%; APOC3 (serum) (APOC3 [4]; Day 22): 3.50 mg/dL; APOC3 (serum) (APOC3 [4]; Day 29): 4.16 mg/dL; APOC3 (serum) (APOC3 [4]; Day 36): 3.59 mg/dL; APOC3 (serum) (APOC3 [4]; Day 43): 4.07 mg/dL; APOC3 (serum) (APOC3 [4]; Day 50): 3.96 mg/dL; APOC3 (serum) (APOC3 [4]; Day 57): 4.94 mg/dL; APOC3 (serum) (APOC3 [4]; Day 64): 4.47 mg/dL; inhibition of serum APOC3 relative to Day −6 (APOC3 [4]; Day 64): approximately 23%; APOC3 (serum) (APOC3 [4]; Day −6 (pre-dose baseline)): 5.84 mg/dL
